In publication PMC3769231:

What was measured:
[1] = target: papain (from papaya latex) (papaya) (UniProt P00784); test: enzyme inhibition assay (Ki from substrate hydrolysis progress curves); papain activity in 50 mM phosphate buffer (pH 6.0), 40 µM Z-FR-AMC, 37°C, with or without NtCYS, reducing conditions
[2] = target: human liver cathepsin L (human); test: enzyme inhibition assay (Ki from substrate hydrolysis progress curves); human cathepsin L activity in 400 mM sodium acetate buffer (pH 5.5), 40 µM Z-FR-AMC, 25°C, with or without NtCYS, reducing conditions
[3] = target: recombinant NtCP14 (N. tabacum); test: enzyme inhibition assay (Ki(app) = [I0]/(V0/Vi-1)); apparent; recombinant NtCP14 activated in 100 mM sodium acetate (pH 4.0); hydrolysis of 40 µM Bz-FVR-AMC at 30°C, pH 6.0, reducing conditions, NtCYS varied
Sequence of recombinant NtCP14 (N. tabacum) (main, as listed by the source): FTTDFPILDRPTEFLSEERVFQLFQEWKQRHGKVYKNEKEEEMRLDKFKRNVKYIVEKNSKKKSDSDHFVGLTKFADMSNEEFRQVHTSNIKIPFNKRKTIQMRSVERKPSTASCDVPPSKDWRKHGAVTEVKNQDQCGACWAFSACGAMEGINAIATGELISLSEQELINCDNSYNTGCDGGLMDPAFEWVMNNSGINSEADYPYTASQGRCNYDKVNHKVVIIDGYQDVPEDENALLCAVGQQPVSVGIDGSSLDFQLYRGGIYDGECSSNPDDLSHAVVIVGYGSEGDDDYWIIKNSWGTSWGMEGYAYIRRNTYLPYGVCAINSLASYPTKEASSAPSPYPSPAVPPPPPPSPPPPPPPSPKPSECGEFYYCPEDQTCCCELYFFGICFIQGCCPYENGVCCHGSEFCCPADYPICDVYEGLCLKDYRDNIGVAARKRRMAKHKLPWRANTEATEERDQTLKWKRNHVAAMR

Sequence of papain (from papaya latex) (papaya) (P00784 134-345): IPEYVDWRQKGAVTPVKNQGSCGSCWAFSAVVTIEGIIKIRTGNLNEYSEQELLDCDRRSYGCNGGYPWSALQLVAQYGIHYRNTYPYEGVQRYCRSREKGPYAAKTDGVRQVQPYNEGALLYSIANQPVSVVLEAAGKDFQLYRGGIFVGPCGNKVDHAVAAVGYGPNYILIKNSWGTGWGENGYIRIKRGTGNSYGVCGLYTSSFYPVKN

Ki [1]: 0.0645 µM | Ki [2]: 0.00039 µM | Ki [3]: 0.74 µM
Substance: recombinant NtCYS (natural protein)
